# From patent US20220177591A1 (TARGINTA, published 2022)
# T1: human integrin alpha10 on human cancer cell lines (BT549, PC-3, A549, MiaPaCa-2, PANC-1) (human, UniProt O75578 23-1167)
# T1 construct: Endogenous protein on human cell lines; also called integrin alpha10 polypeptide; alpha10 subunit of integrin alpha10 beta1
# T1 sequence: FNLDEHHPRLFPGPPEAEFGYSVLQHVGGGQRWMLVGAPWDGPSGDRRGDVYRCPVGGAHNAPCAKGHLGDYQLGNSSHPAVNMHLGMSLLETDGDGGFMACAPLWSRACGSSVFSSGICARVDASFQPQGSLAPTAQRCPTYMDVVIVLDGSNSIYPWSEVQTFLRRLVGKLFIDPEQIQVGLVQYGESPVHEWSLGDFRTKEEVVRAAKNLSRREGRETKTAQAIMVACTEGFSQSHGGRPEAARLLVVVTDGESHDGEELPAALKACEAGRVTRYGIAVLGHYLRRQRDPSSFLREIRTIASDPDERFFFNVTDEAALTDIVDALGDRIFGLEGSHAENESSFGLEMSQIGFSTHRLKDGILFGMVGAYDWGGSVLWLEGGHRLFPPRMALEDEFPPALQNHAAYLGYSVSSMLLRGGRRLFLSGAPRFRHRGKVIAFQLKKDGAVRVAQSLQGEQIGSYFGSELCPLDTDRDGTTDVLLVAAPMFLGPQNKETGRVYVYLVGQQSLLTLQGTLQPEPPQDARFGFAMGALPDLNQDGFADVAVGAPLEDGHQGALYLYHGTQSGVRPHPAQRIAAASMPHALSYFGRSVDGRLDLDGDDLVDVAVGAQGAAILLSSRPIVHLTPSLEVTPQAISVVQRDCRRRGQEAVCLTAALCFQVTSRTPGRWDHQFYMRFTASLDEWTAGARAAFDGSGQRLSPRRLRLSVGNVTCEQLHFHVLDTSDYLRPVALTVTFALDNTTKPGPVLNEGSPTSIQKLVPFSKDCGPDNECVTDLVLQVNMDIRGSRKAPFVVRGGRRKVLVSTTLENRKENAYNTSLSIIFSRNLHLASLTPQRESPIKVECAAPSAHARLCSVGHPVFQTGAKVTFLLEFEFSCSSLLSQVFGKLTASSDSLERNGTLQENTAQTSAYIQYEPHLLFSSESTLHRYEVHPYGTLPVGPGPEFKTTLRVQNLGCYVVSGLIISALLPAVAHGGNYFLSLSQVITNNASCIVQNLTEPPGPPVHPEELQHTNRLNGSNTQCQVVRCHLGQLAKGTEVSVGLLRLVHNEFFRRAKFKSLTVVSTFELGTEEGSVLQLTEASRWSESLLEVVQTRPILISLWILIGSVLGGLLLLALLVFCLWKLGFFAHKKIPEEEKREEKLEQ
# B1: human monoclonal anti-integrin alpha10 antibody Th101 (antibody, V domains shown)
# VH: EVQLLESGGGLVQPGGSLRLSCAASGFTFSDYGMNWVRQAPGKGLEWVAVISYDGSNKYYADSVKGRFTISRDNSKNTLYLQMNSLRAEDTAVYYCARGGNWGVFDYWGQGTLVTVSS
# VL: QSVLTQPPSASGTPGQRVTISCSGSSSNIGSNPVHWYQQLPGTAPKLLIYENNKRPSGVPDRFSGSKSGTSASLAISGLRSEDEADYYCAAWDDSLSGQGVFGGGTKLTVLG
# notes: It is a human monoclonal antibody detected with an anti-human secondary; Its negative control Th301 is human IgG1 VH/Lambda
# Biological target: T1, human integrin alpha10 on human cancer …
# Experiment: flow cytometry competition on BT549 cells
# Method: The binding competition assay of the antibody mouse monoclonal antibody mAbα10 and the human monoclonal antibody Th101 was performed in integrin alpha10 overexpressing C2C12α10 cells and triple-negative breast cancer BT549 cells. The cells were incubated with single or mixed antibodies at the indicated concentrations (μg/ml) for 30 min followed by two washed, and then stained with secondary antibodies for 30 min. Donkey anti-human Alexa 488 was used as a secondary antibody to the human monoclonal antibody Th101. Donkey anti-mouse Alexa 647 was used as a secondary antibody to the mouse monoclonal antibody mAbα10. The binding of the antibodies was analyzed by flow cytometry, wherein the fluorescence signal of the secondary antibodies were detected.
binder,measurement,value
B1,binding result,binds
